Data on four substances can be found in article PMC12707363.

Series [1] in a line: SEC; analytical SEC (AdvanceBio SEC 200 Å) of the purified Int^N precursor alone; each protein diluted to 10 µM and incubated for 24 h at 15 °C before the run; monomer against soluble high-MW aggregates eluting at the void volume.
Series [2] is described as follows: SEC; SEC of the Int^N precursors with the native single cysteine (Figure S3c), no reducing agent; conditions not shown.

Turning to MBP‐GOM^N(C57S)‐H6, in series [1], the “percent soluble high-MW aggregates” value was 76%.

As to MBP‐GOM^N‐H6, in series [2], the percent aggregated species worked out at 78%. In the case of MBP‐CP21^N(C43S)‐H6, the “percent soluble high-MW aggregates” value in series [1] is listed as 77%. As to MBP‐CP21^N‐H6, the percent aggregated species in series [2] came to 90%.
